# According to patent publication US20240271091A1 (University of Pennsylvania, published 2024):
# No end group written: not given here.
# B1: photoreactive Protein G (pAbBD), BPA position not stated (designed binder)
# chain: MTFKLIINGKTLKGEITIEAVDAAEAEKIFKQYANDYGIDGEWTYDDATKTFTVTE
# modifications: also: contains benzoylphenylalanine (BPA), position not given here
# Molecular target: BSA (UniProt P02769 25-607)
# Experiment: UV photocrosslinking of hIgG2 in the presence of BSA
binder,measurement,value
B1,binding result,no binding (tested: 1% BSA solution (200-times molar excess))
